For this series the following is noted: Escherichia coli (strain K12); pH 3.2; Thermal; CD; glycine-HCl 10 mM; reversible: yes; whole UniProt chain shown.

B1: Ribonuclease HI wild type, P0A7Y4 (protein)
chain: MLKQVEIFTDGSCLGNPGPGGYGAILRYRGREKTFSAGYTRTTNNRMELMAAIVALEALKEHCEVILSTDSQYVRQGITQWIHNWKKRGWKTADKKPVKNVDLWQRLDAALGQHQIKWEWVKGHAGHPENERCDELARAAAMNPTLEDTGYQVEV
Broadly, the Tm is the temperature at the midpoint of the melting transition. On to B1, for which the Tm came out at 53 °C and the “unfolding enthalpy (van 't Hoff)” value amounted to 99.2 kcal/mol.

These data come from FireProtDB (doi:10.1074/jbc.272.30.18686).
